Test results as given in article PMC2763920.
Square brackets hold non-standard residues; d marks the D form. Ends that are not written are not given here. pY = N[C@@H](Cc1ccc(OP(=O)(O)O)cc1)C(=O)O

Columns and labels:
[1] = biological target: Fyn-SH3-SH2 (GST tag cleaved with thrombin); experiment: high-speed capillary electrophoresis
[2] = biological target: Fyn-SH3-SH2 (GST tag cleaved with thrombin); experiment: NECEEM
[3] = biological target: Fyn-SH3-SH2 (GST tag cleaved with thrombin); experiment: fluorescence polarisation

Binder: fluorescein-EEEEPQ[pY]EEIPIYL [Fluor-Fyn peptide (fluorescein-EEEEPQpYEEIPIYL)]
- t1/2 of the complex [1]: 48.4 s
- t1/2 of the complex [2]: 101 s
- t1/2 of the complex [3]: 53.5 s
